Reference: patent US20160058881A1, “PRODRUGS WITH PROLONGED ACTION” (INDIANA UNIVERSITY RESEARCH AND TECHNOLOGY CORPORATION, priority 2013, published 2016)
Where two headings read alike, the source gives them in different places. Positions of bridges follow the written chain, without caps; N, C: chain ends. Non-standard residues stand in square brackets, D forms with d. Residues, ends and D or L forms follow the SMILES beside them. Groups on a side chain read outwards from the residue. No end group written: not given here. *: point of attachment. Docosanoyl = CCCCCCCCCCCCCCCCCCCCCC(=O)*; Phe(4-NH2) = Nc1ccc(C[C@H](N)C(=O)O)cc1; PhLac = O=C(O)[C@@H](O)Cc1ccccc1; Aib = CC(C)(N)C(=O)O; Sar = CNCC(=O)O

Assays:
GLP-1 receptor [1] = biological target: T1, GLP-1 receptor (Homo sapiens, UniProt P43220); assay: GLP-receptor luciferase bioassay of samples incubated in 20% human plasma (restored activity); format: cell-based; conditions: 37° C.; for Change of activity over the time points in plasma: 0 to 5 d
Method: To explore the possible formation of DKP and simultaneous regeneration of the parent drug, the above-mentioned peptides were incubated in 20% human plasma at 37° C. for approximately 5 days. Samples were collected at different time points (0, 1, 2, and 5 days).
Target sequence in this assay (P43220 24-463): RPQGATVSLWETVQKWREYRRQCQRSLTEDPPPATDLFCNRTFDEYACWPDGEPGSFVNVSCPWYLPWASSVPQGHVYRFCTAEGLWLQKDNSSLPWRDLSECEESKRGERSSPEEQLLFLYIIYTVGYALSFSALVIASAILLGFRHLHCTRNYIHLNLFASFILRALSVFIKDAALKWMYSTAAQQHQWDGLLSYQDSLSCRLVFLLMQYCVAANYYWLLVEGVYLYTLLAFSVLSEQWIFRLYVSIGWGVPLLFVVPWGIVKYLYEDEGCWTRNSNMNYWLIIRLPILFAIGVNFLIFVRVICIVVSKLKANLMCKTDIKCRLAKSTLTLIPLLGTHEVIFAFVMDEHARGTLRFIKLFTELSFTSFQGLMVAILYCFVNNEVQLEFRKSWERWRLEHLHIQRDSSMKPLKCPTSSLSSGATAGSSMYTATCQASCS

[2] = test system: diet induced obesity (DIO) mice; assay: In vivo effects in DIO mice, single injection (Example 4); set-up: species or system mice (strain: C57B16); conditions: single s.c. injection, lower dose (10 nmol/kg), Day 0-5
Method: The Peptide D prodrug described in Example 3 was tested for its in vivo effects in diet induced obesity (DIO) mice (strain: C57B16). Nine groups of eight mice (with an initial average body weight of 50 g) were subcutaneously injected with vehicle only or 10 nmol/kg or 50 nmol/kg of a Peptide D acylated prodrug of Example 3, the parent peptide (i.e., Peptide D lacking an acylated dipeptide prodrug moiety), Peptide D with an acylated lysine residue linked directly the 4-amino phenylalanine at position 10, or the following peptide: YAib[…](γEγE-C16)[…]ib[…] (SEQ ID NO: 3082) (Peptide F). The mice were 6 months old and had been on a high fat diet for approximately 2 months. Body weight was monitored for a week following injection and was measured on Day 0, 1, 2, and 5, wherein Day 0 was the day of injection (FIG. 2).

[3] = test system: diet induced obesity (DIO) mice; assay: In vivo effects of daily prodrug injection in DIO mice (Example 6); set-up: species or system mice (strain: C57B16); conditions: s.c. daily for 5 days, 10 nmol/kg
Method: C22 acylated versions of Peptide D were also tested for their in vivo effects in diet induced obesity (DIO) mice (strain: C57B16) following daily administrations. Nine groups of eight mice (with an initial average body weight of 65 g) were subcutaneously injected daily for 5 days with vehicle only or 3 nmol/kg or 10 nmol/kg of Peptide D (parent peptide), a Peptide D with C22 acylation via the prodrug dipeptide moiety and Peptide D with a C22 acyl group linked directly to the 4-amino phenylalanine at position 10. The mice were 11 months old and had been on a high fat diet for approximately 2 months. Body weight was monitored for a week following injection and was measured on Day 0, 1, 2, 3, 4 and 7, wherein Day 0 was the day of injection (FIG. 4A, 4B).

[4] = test system: diet induced obesity (DIO) mice; assay: In vivo effects of acyl chain length variants in DIO mice, single injection (Example 5); set-up: species or system mice (strain: C57B16); conditions: single s.c. injection, 10 nmol/kg, Day 0-7
Method: The Peptide D variants described above were also tested for their in vivo effects in diet induced obesity (DIO) mice (strain: C57B16). Nine groups of eight mice (with an initial average body weight of 50 g) were subcutaneously injected with vehicle only, or 10 nmol/kg of a Peptide D with C18 acylation via the dipeptide prodrug moiety (as described in Example 3), the parent peptide (i.e., Peptide D lacking acylation and lacking a dipeptide prodrug moiety), Peptide D with a C18 acyl group linked directly to the 4-amino phenylalanine at position 10, a Peptide D with C20 acylation via the dipeptide prodrug moiety, Peptide D with a C20 acyl group linked directly to the 4-amino phenylalanine at position 10, a Peptide D with C22 acylation via the dipeptide prodrug moiety, and Peptide D with a C22 acyl group linked directly to the 4-amino phenylalanine at position 10. The mice were 6 months old and had been on a high fat diet for approximately 2 months. Body weight was monitored for a week following injection and was measured on Day 0, 1, 2, 5, and 7 wherein Day 0 was the day of injection (FIG. 3A, 3B).

[5] = test system: diet induced obese (DIO) mice; assay: In vivo effects of alternate prodrug injection schemes in DIO mice (Example 7); set-up: species or system mice (strain: C57B16); conditions: s.c., 40 nmol/kg once, 20 nmol/kg twice, or 10 nmol/kg daily for four days
Method: C22 acylated versions of Peptide D were also tested for their in vivo effects in diet induced obese (DIO) mice (strain: C57B16) following alternative administration schedules. Two groups of eight mice (with an initial average body weight of 65 g) were subcutaneously injected once with 40 nmol/kg of Peptide D (parent peptide without acylation and without a dipeptide prodrug moiety), or 40 nmol/kg of a Peptide D with C22 acylation via the dipetide prodrug moiety. Three groups of eight mice were subcutaneously injected twice (1 day between injections, e.g., Monday-Wednesday) with vehicle only, 20 nmol/kg of Peptide D (parent peptide), or 20 nmol/kg of a Peptide D C22 acylated prodrug. Finally, three groups of eight mice were subcutaneously injected daily for four days with vehicle only, 10 nmol/kg of Peptide D (parent peptide), or 10 nmol/kg of a Peptide D C22 acylated prodrug.

GLP-1 receptor [6] = biological target: T1, GLP-1 receptor; assay: cell-based or functional assay
Target sequence in this assay (P43220 24-463 limits assumed): as the sequence (P43220 24-463) above

glucagon receptor [7] = biological target: glucagon receptor (UniProt P47871); assay: cell-based or functional assay
GLP-1 receptor [8] = biological target: T1, GLP-1 receptor; assay: cell-based or functional assay; remark: listed apart in the source
Target sequence in this assay (P43220 24-463 limits assumed): as the sequence (P43220 24-463) above

glucagon receptor [9] = biological target: glucagon receptor (UniProt P47871); assay: cell-based or functional assay; remark: listed apart in the source
GLP-1 receptor [10] = biological target: T1, GLP-1 receptor; assay: GLP-1 agonist activity, cAMP production in an in vitro assay; format: cell-based; conditions: versus glucagon receptor
Target sequence in this assay (P43220 24-463): as above
From the text: Receptor activation can be measured by in vitro assays measuring cAMP induction in HEK293 cells over-expressing the receptor, e.g. assaying HEK293 cells co-transfected with DNA encoding the receptor and a luciferase gene linked to cAMP responsive element as described in the examples.

[11] = format: physicochemical; conditions: buffer
Method: Preliminary analyses were performed with these crude peptides for an approximation of their relative conversion rates in Phosphate Buffered Saline (PBS) buffer (pH, 7.2) using high performance liquid chromatography (HPLC) and MALDI analysis. The crude peptide samples were dissolved in the PBS buffer at a concentration of 1 mg/mL. […] Aliquots of 100 μL were drawn out at various time intervals, cooled to room temperature and analyzed by HPLC. […] The peptides described above were incubated in PBS buffer or serum at 37° C. for up to 8 days. Samples were collected at different time points for PBS and plasma and half-life was determined. […] The peptides described above were incubated in PBS buffer or serum at 37° C. for up to 8 days. Samples were collected at different time points for PBS and plasma and half-life was determined. […] The shorter half-life seen when the acylated dipeptide was linked to […] might be due to a conformational change that facilitates cleavage when bound to plasma or alternatively to reduced detection of the acylated form when bound to plasma.

[12] = format: in vitro ADME
Method: The peptides described above were incubated in PBS buffer or serum at 37° C. for up to 8 days. Samples were collected at different time points for PBS and plasma and half-life was determined. […] The peptides described above were incubated in PBS buffer or serum at 37° C. for up to 8 days. Samples were collected at different time points for PBS and plasma and half-life was determined. […] The shorter half-life seen when the acylated dipeptide was linked to […] might be due to a conformational change that facilitates cleavage when bound to plasma or alternatively to reduced detection of the acylated form when bound to plasma.

GLP-1 receptor [13] = biological target: T2, GLP-1 receptor (UniProt P43220 24-463, limits assumed); assay: cell-based or functional assay
glucagon receptor [14] = biological target: T3, glucagon receptor (UniProt P47871 26-477, limits assumed); assay: cell-based or functional assay
glucagon receptor [15] = biological target: T3, glucagon receptor; assay: cell-based or functional assay; remark: listed apart in the source
GLP-1 receptor [16] = biological target: T2, GLP-1 receptor; assay: cell-based or functional assay; remark: listed apart in the source
[17] = after last injection on day 4 to day 7

glucagon receptor (UniProt P47871), sequence (P47871 26-477 limits assumed): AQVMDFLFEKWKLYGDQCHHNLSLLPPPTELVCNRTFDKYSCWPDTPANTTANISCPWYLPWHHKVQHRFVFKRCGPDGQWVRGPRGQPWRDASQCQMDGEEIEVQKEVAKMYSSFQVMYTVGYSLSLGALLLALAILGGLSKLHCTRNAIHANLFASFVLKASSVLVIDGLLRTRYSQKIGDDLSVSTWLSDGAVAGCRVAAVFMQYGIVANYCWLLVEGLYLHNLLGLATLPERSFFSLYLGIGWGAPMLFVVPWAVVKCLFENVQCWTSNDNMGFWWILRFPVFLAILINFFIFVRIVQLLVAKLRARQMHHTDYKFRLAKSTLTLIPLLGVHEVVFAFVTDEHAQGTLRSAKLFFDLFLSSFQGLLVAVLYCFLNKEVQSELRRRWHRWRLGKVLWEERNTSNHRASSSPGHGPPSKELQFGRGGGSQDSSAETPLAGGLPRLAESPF
T3 sequence (P47871 26-477 limits assumed): as above

Q: Which “Change of activity over the time points in plasma” value (GLP-1 receptor [1]) does the source give for “FAibEGTFTSDF(NH2)SIYLDKQAAAibEFVNWLLAGGPSSGAPPPS (F[Aib]EGTFTSD[Phe(4-NH2)]SIYLDKQAA[Aib]EFVNWLLAGGPSSGAPPPS-NH2; N-terminus assumed; SMILES CC[C@H](C)[C@H](NC(=O)[C@H](CO)NC(=O)[C@H](Cc1ccc(N)cc1)NC(=O)[C@H](CC(=O)O)NC(=O)[C@H](CO)NC(=O)[C@@H](NC(=O)[C@H](Cc1ccccc1)NC(=O)[C@@H](NC(=O)CNC(=O)[C@H](CCC(=O)O)NC(=O)C(C)(C)NC(=O)[C@@H](N)Cc1ccccc1)[C@@H](C)O)[C@@H](C)O)C(=O)N[C@@H](Cc1ccc(O)cc1)C(=O)N[C@@H](CC(C)C)C(=O)N[C@@H](CC(=O)O)C(=O)N[C@@H](CCCCN)C(=O)N[C@@H](CCC(N)=O)C(=O)N[C@@H](C)C(=O)N[C@@H](C)C(=O)NC(C)(C)C(=O)N[C@@H](CCC(=O)O)C(=O)N[C@@H](Cc1ccccc1)C(=O)N[C@H](C(=O)N[C@@H](CC(N)=O)C(=O)N[C@@H](Cc1c[nH]c2ccccc12)C(=O)N[C@@H](CC(C)C)C(=O)N[C@@H](CC(C)C)C(=O)N[C@@H](C)C(=O)NCC(=O)NCC(=O)N1CCC[C@H]1C(=O)N[C@@H](CO)C(=O)N[C@@H](CO)C(=O)NCC(=O)N[C@@H](C)C(=O)N1CCC[C@H]1C(=O)N1CCC[C@H]1C(=O)N1CCC[C@H]1C(=O)N[C@@H](CO)C(N)=O)C(C)C) [Parent peptide (Peptide D), Peptide D lacking acylation and lacking a dipeptide prodrug moiety]” here?
A: No change

Q: What about the Body weight [2] of the same molecule?
A: declined through day 1, but returned close to the starting weight by day 5

Q: What about the Body weight [3, 17] of the same molecule?
A: began gaining weight

Q: What about the Body weight [4] of the same molecule?
A: declined through day 1, but returned toward the starting weight by day 7

Q: What does the source list for “C22 attached to position 10 (via A-B prodrug): Peptide D with (d)Lysine-sarcosine dipeptide on 4-amino group of phenylalanine at position 10, C22 acyl on epsilon amino of (d)Lysine (F[Aib]EGTFTSD[Phe(4-NH2)]([Sar-dK-Docosanoyl])SIYLDKQAA[Aib]EFVNWLLAGGPSSGAPPPS; not fully specified (C-terminus))”?
A: Restored (activity relative to parent peptide) (GLP-1 receptor [1]; 0 d): Restored 36%; Change of activity over the time points in plasma (GLP-1 receptor [1]): Activity Restored; Restored (activity relative to parent peptide) (GLP-1 receptor [1]; 1 d): Restored 57%; Restored (activity relative to parent peptide) (GLP-1 receptor [1]; 5 d): Restored 87%; Body weight (weight loss compared to the parent peptide) [5]: more total and sustained weight loss; Body weight [3, 17]: continued to lose weight through day 7; Body weight ([3]; through day 4): caused the most weight loss

Q: What does the source list for “D9, K12E16(Lactam) glucagon(6-39) Cex peptide (Table 1 peptide 4)”?
A: GLP-1 EC50 (GLP-1 receptor [6]): 119 nM; Glu IC50 (glucagon receptor [7]): 828 nM; GLP-1 EC50 (GLP-1 receptor [8]): 18 nM; Glucagon IC50 (glucagon receptor [9]): 828 nM

Q: What does the source list for “E9, K12E16(lactam) glucagon(6-39) Cex peptide (Table 1 peptide 2)”?
A: GLP-1 EC50 (GLP-1 receptor [6]): 63 nM; Glu IC50 (glucagon receptor [7]): 2010 nM; Glucagon IC50 (glucagon receptor [9]): 2010 nM

Q: With “SEQ ID NO: 22: glucagon analog substituting the native glutamine at position 3 with glutamic acid” as the molecule, how does the “selectivity for the GLP-1 receptor” value (GLP-1 receptor [10]) read?
A: approximately a tenfold selectivity for the GLP-1 receptor

Q: Which Body weight [2] does the source give for `CC[C@H](C)[C@H](NC(=O)[C@H](CO)NC(=O)[C@H](Cc1ccc(N)cc1)NC(=O)[C@H](CC(=O)O)NC(=O)[C@H](CO)NC(=O)[C@@H](NC(=O)[C@H](Cc1ccccc1)NC(=O)[C@@H](NC(=O)CNC(=O)[C@H](CCC(=O)O)NC(=O)C(C)(C)NC(=O)[C@@H](N)Cc1ccccc1)[C@@H](C)O)[C@@H](C)O)C(=O)N[C@@H](Cc1ccc(O)cc1)C(=O)N[C@@H](CC(C)C)C(=O)N[C@@H](CC(=O)O)C(=O)N[C@@H](CCCCN)C(=O)N[C@@H](CCC(N)=O)C(=O)N[C@@H](C)C(=O)N[C@@H](C)C(=O)NC(C)(C)C(=O)N[C@@H](CCC(=O)O)C(=O)N[C@@H](Cc1ccccc1)C(=O)N[C@H](C(=O)N[C@@H](CC(N)=O)C(=O)N[C@@H](Cc1c[nH]c2ccccc12)C(=O)N[C@@H](CC(C)C)C(=O)N[C@@H](CC(C)C)C(=O)N[C@@H](C)C(=O)NCC(=O)NCC(=O)N1CCC[C@H]1C(=O)N[C@@H](CO)C(=O)N[C@@H](CO)C(=O)NCC(=O)N[C@@H](C)C(=O)N1CCC[C@H]1C(=O)N1CCC[C@H]1C(=O)N1CCC[C@H]1C(=O)N[C@@H](CO)C(N)=O)C(C)C` [Peptide D] (H-F[Aib]EGTFTSD[Phe(4-NH2)]SIYLDKQAA[Aib]EFVNWLLAGGPSSGAPPPS-NH2; N-terminus and C-terminus assumed) here?
A: decline in weight through day 2 before weight began to increase slightly

Q: And the half-life [11]?
A: ~24 h

Q: And the half-life [12]?
A: ~24 h

Q: What about the Body weight [4] of the same molecule?
A: caused the most weight loss

Q: For [PhLac]TSDYSKYLDERRAKDFVQWLMDT (lactam 11-15) [[PLA6, D9, E16K20(lactam), D28]G(6-29) (Table 2 peptide 1)], which “GLP-1 EC50” value (GLP-1 receptor [13]) is on record?
A: 4 nM

Q: What about the “Glucagon IC50” value (glucagon receptor [14]) of the same molecule?
A: 6 nM

Q: What about the “Glucagon IC50” value (glucagon receptor [15]) of the same molecule?
A: 10 to 30 nM

Q: For [PhLac]TSDYSKYLDERRAQDFVQWLMDT (lactam 7-11; not fully specified) [[PLA6, D9, K12E16(Lactam), D28]G(6-29) (Table 2 peptide 2)], which “GLP-1 EC50” value (GLP-1 receptor [13]) is on record?
A: 21 nM

Q: What about the “Glucagon IC50” value (glucagon receptor [14]) of the same molecule?
A: 13 nM

Q: And the “GLP-1 EC50” value (GLP-1 receptor [16])?
A: 177 nM

Q: And the “Glucagon IC50” value (glucagon receptor [15])?
A: 63 nM
